Data as given in US20240410900A1.

Experiments:
[1] = molecular target: non-targeted IgG-IL2 (interleukin-2 fused to the C-terminus of a heavy chain of a germline antibody, which is not binding to a target); experiment: bridging ELISA, IgG-IL2-Bi and -Dig, binder 1.0 ng/mL assay / 20 ng/mL matrix
[2] = molecular target: non-targeted IgG-IL2 (interleukin-2 fused to the C-terminus of a heavy chain of a germline antibody, which is not binding to a target); experiment: bridging ELISA, IgG-IL2-Bi and -Dig, binder 7.8 ng/mL assay / 156 ng/mL matrix
[3] = molecular target: drug antibody (capture and tracer of the bridging immunoassay of FIGS. 2, 7 and 8; not named); experiment: bridging immunoassay, drug antibody as capture and tracer, binder at 1000 ng/ml
[4] = molecular target: TCB (T-cell bispecific format) drug antibody; experiment: bridging ELISA, drug-Bi and drug-Dig, human pooled serum, binder 1.0 ng/mL assay / 20 ng/mL matrix
[5] = molecular target: non-targeted IgG-IL2 (interleukin-2 fused to the C-terminus of a heavy chain of a germline antibody, which is not binding to a target); experiment: as above
[6] = molecular target: targeted IgG-IL2 (interleukin-2 fused to the C-terminus of a heavy chain of an antibody specifically binding to a therapeutic target); experiment: as above
[7] = molecular target: TCB (T-cell bispecific format) drug antibody; experiment: bridging ELISA, drug-Bi and drug-Dig, human pooled serum, binder 31 ng/mL assay / 625 ng/mL matrix
[8] = molecular target: non-targeted IgG-IL2 (interleukin-2 fused to the C-terminus of a heavy chain of a germline antibody, which is not binding to a target); experiment: as above
[9] = molecular target: targeted IgG-IL2 (interleukin-2 fused to the C-terminus of a heavy chain of an antibody specifically binding to a therapeutic target); experiment: as above
[10] = molecular target: TCB (T-cell bispecific format) drug antibody; experiment: bridging ELISA, drug-Bi and drug-Dig, human pooled serum, binder 7.8 ng/mL assay / 156 ng/mL matrix
[11] = molecular target: non-targeted IgG-IL2 (interleukin-2 fused to the C-terminus of a heavy chain of a germline antibody, which is not binding to a target); experiment: as above
[12] = molecular target: targeted IgG-IL2 (interleukin-2 fused to the C-terminus of a heavy chain of an antibody specifically binding to a therapeutic target); experiment: as above
[13] = molecular target: TCB (T-cell bispecific format) drug antibody; experiment: bridging ELISA, drug-Bi and drug-Dig, human pooled serum, binder 0.12 ng/mL assay / 2.4 ng/mL matrix
[14] = molecular target: non-targeted IgG-IL2 (interleukin-2 fused to the C-terminus of a heavy chain of a germline antibody, which is not binding to a target); experiment: as above
[15] = molecular target: targeted IgG-IL2 (interleukin-2 fused to the C-terminus of a heavy chain of an antibody specifically binding to a therapeutic target); experiment: as above

B1: multivalent anti-PG antibody derived from clone 1.7.24 (mixed Pool 2, 3, 4) (antibody, V domains shown)
VH: EVKLLESGGGLVQPGGSLKLSCAASGFDFSRYWMNWVRQAPGKGLEWIGEITPDSSTINYTPSLKDKFIISRDNAKNTLYLQMIKVRSEDTALYYCVRPYDYGAWFASWGQGTLVTVSA
VL: QAVVTQESALTTSPGETVTLTCRSSTGAVTTSNYANWVQEKPDHLFTGLIGGTNKRAPGVPARFSGSLIGDKAALTITGAQTEDEAIYFCALWYSNHWVFGGGTKLTVL
modifications: lysine amines derivatised with SATP or MHS and cross-linked (sites not given)
[1]
  signal [AU]: 0.114 AU
[2]
  signal [AU]: 0.539 AU
[3]
  signal-to-noise ratio (S/N): 83.6
[4]
  signal [AU]: 0.12 AU
[5]
  signal [AU]: 0.0485 AU
[6]
  signal [AU]: 0.0975 AU
[7]
  signal [AU]: 2.09 AU
[8]
  signal [AU]: 0.408 AU
[9]
  signal [AU]: 1.65 AU
[10]
  signal [AU]: 0.654 AU
[11]
  signal [AU]: 0.137 AU
[12]
  signal [AU]: 0.475 AU
[13]
  signal [AU]: 0.0555 AU
[14]
  signal [AU]: 0.0395 AU
[15]
  signal [AU]: 0.044 AU
